The record followed here is patent US20110104152A1 (Genentech, published 2011).

Assay [1] concerns the target human FGFR1c polypeptide expressed in transfected rat L6 myoblasts (human, UniProt P11362 22-822). Briefly: cell-based or functional assay.
The target of assay [2] is human FGFR4 polypeptide expressed in transfected rat L6 myoblasts (human, UniProt P22455 22-802). The assay is described as follows: cell-based or functional assay.
Assay [3] deals with T1, FGFR4-Fc (recombinant polypeptide comprising a human FGFR4 extracellular domain fused to a human IgG1 Fc … (human, UniProt P22455 22-369)).
T1 construct: extracellular domain; Bought reagent; also called FGFR4 fused to Fc fragment; catalog no; 685-FR-050, R&D Systems; not shown: human IgG1 Fc fragment
T1 sequence (looked up): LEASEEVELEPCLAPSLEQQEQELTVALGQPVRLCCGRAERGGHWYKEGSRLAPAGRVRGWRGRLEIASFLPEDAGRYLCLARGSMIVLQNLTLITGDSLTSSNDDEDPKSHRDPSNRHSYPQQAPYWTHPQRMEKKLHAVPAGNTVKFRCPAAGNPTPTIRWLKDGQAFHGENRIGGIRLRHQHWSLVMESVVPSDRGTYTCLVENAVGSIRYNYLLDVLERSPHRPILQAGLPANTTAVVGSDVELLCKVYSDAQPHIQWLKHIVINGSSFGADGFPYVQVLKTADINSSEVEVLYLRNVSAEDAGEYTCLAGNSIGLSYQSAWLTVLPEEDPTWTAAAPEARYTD
Briefly: ELISA, FGFR-Fc captured by anti-human IgG-Fc antibody, 2 µg/mL heparin, no Klotho-beta. On the procedure:
Monoclonal antibodies specific for human IgG-Fc fragment (Jackson ImmunoResearch, West Grove, Pa., USA) were immobilized in the wells of Maxisorp™ flat-bottom 96-well plates (Nunc, Thermo Fisher Scientific, Rochester, N.Y.) by overnight incubation with 100 μl per well of 2 μg/ml antibody solution. Each well was then incubated with either 1 μg/ml of FGFR4—Fc (a recombinant polypeptide comprising a human FGFR4 extracellular domain fused to a human IgG₁ Fc fragment; catalog no. 685-FR-050, R&D Systems, Inc., Minneapolis, Minn.) or 1 μg/ml FGFR1c-Fc (a recombinant polypeptide comprising a human FGFR1c extracellular domain fused to a human IgG₁ Fc fragment; catalog no. 658-FR-050, R&D Systems).
The surface-immobilized FGFR4-Fc or FGFR1c-Fc polypeptides were incubated for 1 hr with native human FGF19-Flag polypeptide with a C-terminal epitope tag (See FGF19-Flag in Table 10, SEQ ID NO:237) at concentrations of 1 μg/mL, 0.4 μg/mL, 0.16 μg/mL, 0.064 μg/mL, 0.0256 μg/mL, 0.004096 μg/mL or 0.0016384 μg/mL, each with 2 μg/mL heparin, to allow binding of the FGF19 polypeptide to the receptor domain. […]

human FGFR1c polypeptide expressed in transfected rat L6 myoblasts, sequence (P11362 22-822): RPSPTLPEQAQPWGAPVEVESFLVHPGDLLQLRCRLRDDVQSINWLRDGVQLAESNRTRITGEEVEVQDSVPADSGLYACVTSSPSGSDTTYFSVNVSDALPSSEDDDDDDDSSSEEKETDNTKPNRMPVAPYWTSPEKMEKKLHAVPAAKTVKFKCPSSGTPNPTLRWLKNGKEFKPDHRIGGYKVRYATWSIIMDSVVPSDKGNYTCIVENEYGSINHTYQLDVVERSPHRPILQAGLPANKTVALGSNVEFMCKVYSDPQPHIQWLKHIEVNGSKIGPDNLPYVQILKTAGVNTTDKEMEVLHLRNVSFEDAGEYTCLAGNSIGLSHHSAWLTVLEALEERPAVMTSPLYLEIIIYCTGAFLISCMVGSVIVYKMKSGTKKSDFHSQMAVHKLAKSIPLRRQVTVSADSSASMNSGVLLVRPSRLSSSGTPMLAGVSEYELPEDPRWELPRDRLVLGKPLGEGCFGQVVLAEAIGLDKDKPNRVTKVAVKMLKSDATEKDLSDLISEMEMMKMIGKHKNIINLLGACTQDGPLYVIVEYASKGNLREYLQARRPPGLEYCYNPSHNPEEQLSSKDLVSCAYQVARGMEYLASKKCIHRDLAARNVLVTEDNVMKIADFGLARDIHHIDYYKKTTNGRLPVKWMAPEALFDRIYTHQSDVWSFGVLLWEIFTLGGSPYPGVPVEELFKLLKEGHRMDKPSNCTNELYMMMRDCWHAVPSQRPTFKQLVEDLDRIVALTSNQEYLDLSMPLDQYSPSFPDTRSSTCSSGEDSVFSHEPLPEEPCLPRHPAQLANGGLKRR

B1: chimeric FGF19 polypeptide cFGF21/19-2/Flag (ligand)
chain: HPIPDSSPLLQFGGQVRQRYLYTSGPHGLSSCFLRIRADGVVDCARGQSAHSLLEIKAVALRTVAIKGVHSVRYLCMGADGKMQGLLQYSEEDCAFEEEIRPDGYNVYRSEKHRLPVSLSSAKQRQLYKNRGFLPLSHFLPMLPMVPEEPEDLRGHLESDMFSSPLETDSMDPFGLVTGLEAVRSPSFEKDYKDDDDK
notes: also called chimeric FGF19-Flag polypeptide; FGF19v
Consider B1, for which, in assay [1], the “EC50 of dose-dependent activation of luciferase (GAL4-Elk1 reporter), L6 cells with KLB and FGFR1c” value turned out to be 0.0227 µg/mL. The “EC50 of dose-dependent activation of luciferase (GAL4-Elk1 reporter), L6 cells with FGFR4 and KLB” value in assay [2] was 0.269 µg/mL. The binding result in assay [3] is “no binding (tested: 1 µg/mL (highest concentration tested))”.
